# Test results: the nanobody polyreactivity screen of Harvey et al. (2022)
# Assay: yeast display, Sf9 membrane polyspecificity reagent, FACS + sequencing; frameworks hold sequencing errors
# Summary of the method: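 Galactose induction of a Saccharomyces cerevisiae BJ5465 synthetic nanobody display library ran 36–48 hours. The cells were then stained for 1 hour at 4 °C with 10% biotinylated, detergent-solubilized Sf9 membrane reagent, pulled down on streptavidin microbeads and FACS-sorted into low and high (top ~1%) gates on expression and reagent-binding fluorescence. Labels for polyreactivity follow the gate of origin.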
row,Sequence,polyreactivity (PSR sort gate)
1,QVQLVESGGGLVQAGGSLRLSCAASGITFNGYVMGWYRQAPGKERELVAAITSGARTYYADSVKGRFTISRDNAKNTVYLQMNSLKPEDTAVYYCAASIWLYRYYYWGQVTQVTVSS,high polyreactivity
2,QVQLVESGGGLVQAGGSLRLSCAASGRTFFQYAMGGYRQAPGKERELVAAIRWSDSTYYADSVKGRFTISRDKAKNTVYLPMNSLKPEDTAVYYCNASVFQSEYDYWGQGTQVTVSS,low polyreactivity
3,QVQLVESGGGLVQAGGSLRLSCAASGLTFVPNAMRWYRQAPGKERELVAAISNNGGRTYYADSVKGRFTISRDNAKNTVYLQMNSLKPEDTAVYYCAKSLSPGERHSYDYRGQGTQVTVSS,high polyreactivity
4,QVQLVESGGGLVQAGGSHRLSCAASGSIFTRNVMGWYRQAPGKERELVAAITSAGSTYYADSVKGRFTISRDNAKNNVYLQMTSLNPEDTAVYNCDAKVYYPYLFTSYDYWGQGTQVTVSS,high polyreactivity
5,QVQLVESGGGLVQAGGSLRLSCAASGFTFTYNAMGWYRQAPGKERELVAGITLGSRTNYADSVKGRFTISRDNAKNTVYLQMNSLKPEDTAVYYCAVRYYGGYGYWGQGTQVTVSS,high polyreactivity
6,QVQLVESGGGLVQAGGSLRLSCAASGSTLYRYTMGWYRQAPGKERELVAAISSGGNTYYADSVKGRFTISRDNAKNTVYLQMNSLKPEDTAVYYCAAEDSVYIPYYDAYDYWGQGTQVTVSS,low polyreactivity
7,QVQLVESGGGLVQAGGTLRLSCAASGGTFRRYAMGWYRQAPGKERELVAAISWTGGSTYYADSVKGRFTISRDNAKNTVYLQMNSLKPEDSAVYYCAAVGSSSSKGGYWGQGTQVTVSS,high polyreactivity
8,QVQLVESGGGLVQAGGSLRLSCAASGIIFRGYAMGWDRQAPGKERELVARISITGGRTYYADSVKGRFTLSRDNAKNTVYLQMNSLKPEDTAVYYCAAGKYVRTVRYDYWGQGPQVTVSS,high polyreactivity
9,QVQLVESGGGLVQAGGSLRLSCAASGRIFNYNVMGWYRQAPGKERELVASISYSSTRTYYADSVKGRFTISRDTAKNTVYLQMNSLKPEDTAVYYCNADYYFSSYRSTFDYWGQGTQVTVSS,low polyreactivity
10,HVQLVESGGGLVQAGGSLRLSCAASGRIFPGYAMGWYRQAPGKERELVAGISNDASTNYADSVKGRFTISRDNAKNTVYLQMNSLKPEDTAVYYCAAEIYYLSVPRYDYWGQGTQVTVSS,low polyreactivity
11,QVQLVESVGGLVQAGGSLRLSCPASGINFWNYAMGRYRQAPGKERELVAVISRGGSTYYADSVKGRFTISRDNAKNTVYLQMNSLKPEDNAVYYCAADSVVWEMEYWGQGTLVTVSS,high polyreactivity
12,QVELVESGGCLVQARGSLRLSCAGSGSIFYRNAMGWYRQAPGKERELVAAISSDGSTNYADSVKGRFTISRDNAKITVDLQMNSLIPEDTAVYYCAGPWTEILDYWGQGTQVTVSS,low polyreactivity
13,QVQLVESGGGLVQAGGSLRLSCDASGRIFYFYAMGWYRQAPGKESELVAAISTSGGSTYYADSVKGRFTISRDNAKNTVYLQMNSLKPEDTAVYYCAARYRYYGSEYDYWGQGTQVTVSS,low polyreactivity
14,QVQLVESGGGLVQAGGSLRLSCDASGLIFYSNAMGWYRQAPGKERELVAAISSSGGSTYYADCVKGRFTISRDNAKNTVYLQMNSLKPEDTAVYFCAAAGDDYWGQGTQVTVSS,low polyreactivity
15,QVQLVESGGGLVQAGGSLLLSCAASGSIFFYAMGSYRQAPGKERELVADITYTGGSKYADSVKGRFTISRDNAKNTVYLQMNSLKPEDTAVYYCAKLDGGLFDYWGQGTQVTVSS,low polyreactivity
16,QVQLVESGGGLVQAGGSLRLSCAASGRIITYYAMGWYRQAPGKERELVAAITASGSRTYYADSVKGRFTISRDTAKNTVYLQMNSLKPEDTAVYYCAALSRLSPLSGSYYWGQGTQVTVSS,high polyreactivity
17,QDQLVESGGGLVQAGGSLRLSCAASGSTLNGNAMGWYRQAPGKERELVAAITTSGGSTYYADSVKGRFTISRDNAKNTVYLQMNSLKPEDTAVYYCNKLIGRRYGWANGYDYWGQGTQVTVSS,low polyreactivity
18,QVQLVESGGGLVQAGGSLRLSCADSGRIFFDYAMGWYRQAPGKERELVAAISYRGGDTYYADSVKGRFTISRDNAKNTVYLQMNSLIPEDTAVYYCAATGGYYEYWGQGTQVTVSS,low polyreactivity
19,QVQLVESGGGLVQAGGSLRLSCAASGIIFYDNAMGWYRQAPGKERELVAAISWGGGDTYYADSVKGRFTISRDNAKNTVYLQMNSLKPEDTAVYYCAAGNLPDYDYWGQGTQVTVSS,low polyreactivity
20,QVQLVESGGGLVQAGGSLRLSCAASGRLFKSYAMGWYRQAPGKEREFVAAISTRSSSTYYADSVKGLFTISRDNAKNTVYLQMNSLKPEDTAVYYCAATPRRVSPYGVPYGDVYWGQGTQVTVSS,low polyreactivity
21,QVQLVESGGGLVQAGGSLRLSCAASGLIFQVYTMGWYRQAPGKERELVAAISWDAGSTYYADSVKGRFTISRDNAKNTVYLLMNSLKPEDTAVYYCATTQYTTYGRRYYWGQGTQVTVSS,high polyreactivity
22,QVQLVESGGRLVQAGGSLRLSCAASGLIIDVNTMGWYRQAPGKDRELVAAITGSGGRTYYADSVKGRFTISRDNAKNTVYLQMNSLKPEDSAVYYCNADTSYVGFDFWGQGTQVTVSS,low polyreactivity

row,Sequence,polyreactivity (PSR sort gate)
1,QVQLVESGGGLVQAGGSLRLSCAASGRTFRQYAMGWYRQAPGQETELVAAITWDGGSTYYADSVKGRFTISRDNAKNPVYLQMNSLKPEDTAVYYCAKLLGGTYYEYDYWGQGTQVTVSS,low polyreactivity
2,QVQLVESGGGLVQAGGSLRLSCAASGSTFLDYAMGWYRQAPGKERELVAGINSGGSTNYADSVKGRFTISRDNAKNTVYLQMNSLKPEDTAVYYCAADRVGNEYDYWGQGTQVTVSS,low polyreactivity
3,QVQLVESGGGLVQAGGSLRLSCAASGSIFGNNAMGWYRQAPGKERELVAGINYSGGRTYYADSVKGRFTISRDNAKNTVYLQMNSLKPEDTAVYYCAADGHRQVGWWRFEYGYWGQGTQVTVSS,low polyreactivity
4,QVQLVESGGGLVQAGGSLRLSCAASGSTLQINGMGGYRQAPGKERELVAAISIGGDTNYADSVKGRFTISRDNAKNTEMNSLKTEDTAVYYCNTDYFGSLVVVIFDYWGQGTQVTVSS,low polyreactivity
5,QVQLVESGGGLVQAGGSLRLSCAASGRIFWWYAMGWYRQAPGKERELVAAISTGSRTYYADSVKGRFTISRDNAKNTVYLQMNSLKPEDTAVYYCNKDYWYGYSDFDYWGQGTQVTVSS,low polyreactivity
6,QVQLVESGGGLVQAGGSLRLTCDASGSTFVNYAMGWYRQAPGKERELVAAITDSGGSTYYADSVKGRFTISRDNAKNTVYLQMNCLKPEDTAVYYCATEGYYYYTSYDYWGQGTQVTVSS,low polyreactivity
7,QVQLVESGGGLVQAGGSLRLSCAASGITFDRYAMGWYRQAPGKERELVAAITTRGTRTYADSVKGRFTISRDNAKNTVYLQMNSLKPEDTAVYYCAATSYRLTYAWPYYYWGQGTQVTVSS,high polyreactivity
8,QVQLVESGGGLVQAGGSLRLSCAASGSTFKYYAMGWYRQAPGKERELVAAISASGGTTYYADSVKGRFTISRDNAKNTVYVQMNSLKPEDTAVYDCAARYLTTFSRTDMEYWGQGTQVTVSS,low polyreactivity
9,QVQLVESGGGLVQAGGSLRLSCAASGFIFDHYAMGWYRQAPGKERELVAAISGSGGSTYYADSVKGRFPISRDNAKNTVYLQMNSLKPEDTAVYYCAARPGSKYAQRGYWGQGTHVTVSS,high polyreactivity
10,QVQLGESGGGLVQAGGSLRLSCAASGNTFFTYAMGWYRQAPGKERELVAVITSVGSTNYADSVKGRFTISRDNAKNTVYLQMNSLKPEDTAVYYCAARTRRGLARYDYWGHGTQVTVSS,high polyreactivity
11,QLQLVESGGGLVQAGGSLRLSCAASGSIFGPYARGWYRQAPGKERELVAAITDGGGSTYYADSVKGRFTISRDNAKNTVYLQMNSLKPEETAVDYCAADHSSKSGPADTFYWFDYWGQGTQVTVSS,low polyreactivity
12,QVQLVESGGGLVQAGGSLRLSCAASGFTLPVYGMGWYRQAPGQERELVAAISSRGGNTYYADSVKGRFTISRDNAKNTVYLQMNSLKPEDTAVYYCAAGGITYTGDDYWGQGTQVTVSS,high polyreactivity
13,QVQLVDSGGGLVQAGGSLRLSCAASGSIFVNNTMGWYRQAPGKERELVAAISSSGGSTYYADSVKGRFTISRDNAKNTVYLQMNSLKPEDTAVYYCAAVNGYQYPQYYYNGYDYWGQGTQVTVSS,low polyreactivity
14,QVHLVESGGGLVQAGGSLRLSCAASGRIFYYYAMGWYRQAPGKEREFVAAIRISGGSTNYADSVKGRFTISRDNAKNTVYLQMNSLKPEDTAVYYCAARSKYSGIRRAYDYWGQGTQVTVSS,high polyreactivity
15,QVQLVESGGGLVQAGGSLRLSCAASGFTFNYYTMGWYRQAPGKERELVAAISGSGVSTYYADSVKGRFTISRDNAKNTVYLQMNSLKPEDTAVYYCNKLFGIYWGQGTQVTVSS,high polyreactivity
16,QVQLVESGGGLVQAGGSLRLSCAASGLTFEYNAMGWYRQAPGKERELVASISSGGGTNYADSVKGRFTISRDNAKNTVYLQMNSLKPEDTAVYYCATDNYDWSCWAFRGYWYDYWGQGTQVTVSS,low polyreactivity
17,LVQLQESGGGLVLAGGGLRLSCAASGNIFTYVIMGWYRQPPGKERELVAAITYGTITNYADSVKGPFTISRDNAKNTVYLQMNCLKPEDTAVYHCAVQSPRIEPRLYYWGQGTQVTVSS,high polyreactivity
18,QVQLVESGGGLVQPGGSLRLSCAASGFIFLGYAMGWYRQAPGKERELVATITWRGGSTYYADSVKGRFTISRDNAKNTVYLQMNSLIPEDTADYYCAATRGWLHSFARDDHDYWGQGTQVTVSS,high polyreactivity
19,QVQLVESGGGLVQAGGSLRLSCAASGSTFLRYAMGWYRQAPGKERELVAAINWSGGGTSYADSVKWRFTISRDNAKNTVYLQMNSLKPEDTEGYSCAAYFRYSYYWSEYWGQGTQVTVSS,high polyreactivity
20,QVQLVESGGGLVQAGGSLRLSCAASGSIFLSNARGWYIQAPGKERELVADIDWTRGDTYYADSVKGRFTISRDNAKNTVYLQMNSLKPEDTAVYDCAADYGYRNLLTEYGYWGQGTEVTVSS,low polyreactivity
21,QVQLVESGGGLVQAGGSLRLSCAASGYIFYVYAMGWYRQAPGKERELVAAINSGDITYYADSVKGRFTISRDNAKNTVYLQMNSLKPEDTAVYYCATVLILIYDYWGQGTQVTVSS,low polyreactivity
